Measured values taken from patent publication US20200317768A1 (published 2020).

T1: cynomolgus monkey FcγRIIa1 extracellular domain, C-terminal His-tag (cynomolgus monkey)
T1 construct: also called cyno FcγRIIa1; cynoFcgRIIa1
T1 chain: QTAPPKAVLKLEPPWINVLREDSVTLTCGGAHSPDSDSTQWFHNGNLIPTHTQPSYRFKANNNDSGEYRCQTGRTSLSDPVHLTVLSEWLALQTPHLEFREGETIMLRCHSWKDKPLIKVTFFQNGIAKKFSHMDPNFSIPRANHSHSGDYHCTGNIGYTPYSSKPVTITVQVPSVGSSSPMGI

T2: cynomolgus monkey FcγRIIa2 extracellular domain, C-terminal His-tag (cynomolgus monkey)
T2 construct: also called cyno FcγRIIa2; cynoFcgRIIa2
T2 chain: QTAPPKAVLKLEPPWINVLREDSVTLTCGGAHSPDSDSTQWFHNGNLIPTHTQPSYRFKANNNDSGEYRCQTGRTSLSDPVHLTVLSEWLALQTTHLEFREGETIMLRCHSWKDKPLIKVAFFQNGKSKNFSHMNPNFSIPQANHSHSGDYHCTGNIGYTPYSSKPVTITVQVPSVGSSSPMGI

T3: cynomolgus monkey FcγRIIa3 extracellular domain, C-terminal His-tag (cynomolgus monkey)
T3 construct: also called cyno FcγRIIa3; cynoFcgRIIa3
T3 chain: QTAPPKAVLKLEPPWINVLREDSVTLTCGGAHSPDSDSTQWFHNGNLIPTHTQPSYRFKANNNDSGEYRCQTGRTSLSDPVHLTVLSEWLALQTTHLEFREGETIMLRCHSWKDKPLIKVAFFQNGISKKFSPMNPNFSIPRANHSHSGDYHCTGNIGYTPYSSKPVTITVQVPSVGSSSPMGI

T4: cynomolgus monkey FcγRIIb extracellular domain, C-terminal His-tag (cynomolgus monkey)
T4 construct: also called cyno FcγRIIb; cynoFcγRIIb
T4 chain: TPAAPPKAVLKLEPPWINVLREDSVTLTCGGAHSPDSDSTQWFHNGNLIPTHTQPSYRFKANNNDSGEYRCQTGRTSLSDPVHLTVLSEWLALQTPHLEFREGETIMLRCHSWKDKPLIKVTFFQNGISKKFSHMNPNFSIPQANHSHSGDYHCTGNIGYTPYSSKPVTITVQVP

T5: cynomolgus monkey FcγRIIIaS extracellular domain, C-terminal His-tag (cynomolgus monkey, UniProt Q8SPW2 21-206 at identity 1.00))
T5 construct: also called cyno FcγRIIIaS; cynoFcγRIIIaS
T5 chain: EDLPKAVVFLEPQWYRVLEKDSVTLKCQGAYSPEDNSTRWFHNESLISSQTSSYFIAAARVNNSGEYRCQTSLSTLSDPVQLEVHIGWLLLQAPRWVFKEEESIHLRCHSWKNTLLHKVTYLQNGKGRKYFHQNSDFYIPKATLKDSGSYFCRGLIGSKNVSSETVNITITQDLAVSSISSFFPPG

T6: human FcγRIIaH extracellular domain, C-terminal His-tag (human, UniProt P12318 34-217)
T6 construct: also called human FcγRIIa (type H); FcgRIIaH
T6 sequence: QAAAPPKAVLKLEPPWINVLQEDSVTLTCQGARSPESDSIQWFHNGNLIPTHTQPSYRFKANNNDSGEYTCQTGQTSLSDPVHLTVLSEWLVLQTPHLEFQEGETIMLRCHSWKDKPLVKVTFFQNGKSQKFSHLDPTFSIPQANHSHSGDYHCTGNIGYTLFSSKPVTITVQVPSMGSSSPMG

T7: human FcγRIIaR extracellular domain, C-terminal His-tag (human, UniProt P12318 34-217)
T7 construct: also called human FcγRIIa (type R); FcgRIIaR
T7 chain: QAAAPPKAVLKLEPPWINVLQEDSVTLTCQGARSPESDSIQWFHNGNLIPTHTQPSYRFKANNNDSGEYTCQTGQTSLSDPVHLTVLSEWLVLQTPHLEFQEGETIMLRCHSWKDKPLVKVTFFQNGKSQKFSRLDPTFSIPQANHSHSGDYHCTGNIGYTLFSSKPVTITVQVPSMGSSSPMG

T8: human FcγRIIb extracellular domain, C-terminal His-tag (human, UniProt P31994 43-217)
T8 construct: also called human FcgRIIb; FcgRIIb
T8 sequence: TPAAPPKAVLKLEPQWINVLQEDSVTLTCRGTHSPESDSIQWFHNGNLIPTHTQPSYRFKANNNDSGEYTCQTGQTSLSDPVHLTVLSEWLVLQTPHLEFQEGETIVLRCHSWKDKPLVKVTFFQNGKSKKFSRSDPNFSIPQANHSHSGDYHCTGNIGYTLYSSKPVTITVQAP


Columns and labels:
Assay in all cases: SPR (Biacore), antibody captured, FcgR analyte
[1] = target: T1, cynomolgus monkey FcγRIIa1 …
Description: (§1) The kinetic analysis of interactions between these antibodies and FcγR was carried out using BIACORE® T200 or BIACORE® 4000 (GE Healthcare). HBS-EP+ (GE Healthcare) was used as the running buffer, and the measurement temperature was set to 25° C. A chip produced by immobilizing Protein A. Protein A/G or mouse anti-human IgG kappa light chain (BD Biosciences) onto a Series S Sensor Chip CM4 or CM5 (GE Healthcare) by the amine-coupling method was used. […] After the measurement, the antibody captured on the chip was washed off by allowing reaction with 10 mM glycine-HCl, pH1.5 and 25 mM NaOH so that the chip was regenerated and used repeatedly. The sensorgrams obtained as measurement results were analyzed by the 1:1 Langmuir binding model using the BIACORE® Evaluation Software to calculate the binding rate constant ka (L/mol/s) and dissociation rate constant kd (l/s), and the dissociation constant KD (mol/L) was calculated from these values. […] Regarding such interactions, KD values were calculated using the following 1:1 binding model described in BIACORE® T100 Software Handbook BR1006-48 Edition AE.
(§2) The behavior of interacting molecules according to the 1:1 binding model on BIACORE® can be described by Equation 1: Req=C·R max/(KD+C)+RI, wherein, Req is a plot of steady-state binding levels to analyte concentration. C is concentration, RI is bulk refractive index contribution in the sample, and Rmax is analyte binding capacity of the surface. When this equation is rearranged, KD can be expressed as Equation 2: KD=C·Rmax/(Req−RI)−C. KD can be calculated by substituting the values of Rmax, RI, and C into Equation 1 or Equation 2. From the current measurement conditions, RI=0, C=2 μmol/L can be used.

[2] = target: T2, cynomolgus monkey FcγRIIa2 …
Description: as §1, §2

[3] = target: T3, cynomolgus monkey FcγRIIa3 …
Description: as §1, §2

[4] = target: T4, cynomolgus monkey FcγRIIb extracellular …
Description: as §1, §2

[5] = target: T5, cynomolgus monkey FcγRIIIaS …
Description: as §1, §2

[6] = target: T6, human FcγRIIaH extracellular domain, …
Description: as §1, §2

[7] = target: T7, human FcγRIIaR extracellular domain, …
Description: as §1, §2

[8] = target: T8, human FcγRIIb extracellular domain, …
Description: as §1, §2

[9] = target: T9, human FcγRIIIaV extracellular domain, C-terminal His-tag (human, UniProt P08637 17-208)
T9 construct: also called human FcgRIIIaV; FcgRIIIaV
Description: as §1, §2

T9 sequence (P08637 17-208 F176V): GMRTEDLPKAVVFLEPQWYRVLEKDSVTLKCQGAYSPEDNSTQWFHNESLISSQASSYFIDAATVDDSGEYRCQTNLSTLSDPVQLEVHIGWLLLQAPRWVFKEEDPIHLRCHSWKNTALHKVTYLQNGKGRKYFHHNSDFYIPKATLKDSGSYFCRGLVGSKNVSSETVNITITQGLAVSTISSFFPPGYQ

Kd [1] [nM] | Kd [2] [nM] | Kd [3] [µM] | Kd [4] [nM] | Kd [5] [µM] | Kd [6] [nM] | Kd [7] [nM] | Kd [8] [nM] | Kd [9] [µM] | Binder
1200 | 1500 | 5.7 | 640 | 2.8 | 530 | 21000 | 12000 | 10 | M103205H795-MY208/M103202L889-SK1 (antibody, human IgG1, kappa, Substitutions introduced into M103205H795-SG1; expressed with M103202L889-SK1 as light chain) heavy: QVTLKESGPVLVKPTETLTLTCTVSGIDLSHDDISWVRQAPGKGLEWVGIISYAGSTYYASWAKGRLTISKDTSKNQVVLTMTNMDPVDTATYYCARGVPAYSHGGDLWGQGTLVTVSSASTKGPSVFPLAPSSKSTSGGTAALGCLVKDYFPEPVTVSWNSGALTSGVHTFPAVLQSSGLYSLSSVVTVPSSSLGTQTYICNVNHKPSNTKVDKKVEPKSCDKTHTCPPCPAPELLNGPSVFLFPPKPKDTLMISRTPEVTCVVVDVSDEDPEVKFNWYVDGVEVHNAKTKPREELYNSTYRVVSVLTVLHQDWLNGKEYKCKVSNKALPAPIEKTISKAKGQPREPQVYTLPPSREEMTKNQVSLTCLVKGFYPSDIAVEWESNGQPENNYKTTPPVLDSDGSFFLYSKLTVDKSRWQQGNVFSCSVMHEALHNHYTQKSLSLSP light: DIVMTQSPATLSLSPGERATLSCTSSQSVYHANWLSWFQQKPGQPPKLLIYWASTLAYGVPSRFSGSGSGTDFTLTISSLQPEDAATYYCAGGYGGGRYAFGQGTKVEIKRTVAAPSVFIFPPSDEQLKSGTASVVCLLNNFYPREAKVQWKVDNALQSGNSQESVTEQDSKDSTYSLSSTLTLSKADYEKHKVYACEVTHQGLSSPVTKSFNRGEC
830 | 690 | 19 | 190 | 2.2 | 570 | 680 | 500 | 14 | M103205H795-MY209/M103202L889-SK1 (antibody, human IgG1, kappa, Substitutions introduced into M103205H795-SG1; expressed with M103202L889-SK1 as light chain) heavy: QVTLKESGPVLVKPTETLTLTCTVSGIDLSHDDISWVRQAPGKGLEWVGIISYAGSTYYASWAKGRLTISKDTSKNQVVLTMTNMDPVDTATYYCARGVPAYSHGGDLWGQGTLVTVSSASTKGPSVFPLAPSSKSTSGGTAALGCLVKDYFPEPVTVSWNSGALTSGVHTFPAVLQSSGLYSLSSVVTVPSSSLGTQTYICNVNHKPSNTKVDKKVEPKSCDKTHTCPPCPAPELLNGPSVFLFPPKPKDTLMISRTPEVTCVVVDVSDEDPEVKFNWYVDGVEVHNAKTKPREELYNSTYRVVSVLTVLHQDWLNGKEYKCKVSNTALPKPIEKTISKAKGQPREPQVYTLPPSREEMTKNQVSLTCLVKGFYPSDIAVEWESNGQPENNYKTTPPVLDSDGSFFLYSKLTVDKSRWQQGNVFSCSVMHEALHNHYTQKSLSLSP light: DIVMTQSPATLSLSPGERATLSCTSSQSVYHANWLSWFQQKPGQPPKLLIYWASTLAYGVPSRFSGSGSGTDFTLTISSLQPEDAATYYCAGGYGGGRYAFGQGTKVEIKRTVAAPSVFIFPPSDEQLKSGTASVVCLLNNFYPREAKVQWKVDNALQSGNSQESVTEQDSKDSTYSLSSTLTLSKADYEKHKVYACEVTHQGLSSPVTKSFNRGEC

Second part, the binder before the results:

Binder | Kd [1] [nM] | Kd [2] [nM] | Kd [3] [µM] | Kd [4] [nM] | Kd [5] [µM] | Kd [6] [nM] | Kd [7] [nM] | Kd [8] [nM] | Kd [9] [µM]
M103205H795-MY206/M103202L889-SK1 (antibody, human IgG1, kappa, Substitutions introduced into M103205H795-SG1; expressed with M103202L889-SK1 as light chain) heavy: QVTLKESGPVLVKPTETLTLTCTVSGIDLSHDDISWVRQAPGKGLEWVGIISYAGSTYYASWAKGRLTISKDTSKNQVVLTMTNMDPVDTATYYCARGVPAYSHGGDLWGQGTLVTVSSASTKGPSVFPLAPSSKSTSGGTAALGCLVKDYFPEPVTVSWNSGALTSGVHTFPAVLQSSGLYSLSSVVTVPSSSLGTQTYICNVNHKPSNTKVDKKVEPKSCDKTHTCPPCPAPELLNGPVVFLFPPKPKDTLMISRTPEVTCVVVDVSDEDPEVKFNWYVDGVEVHNAKTKPREELYNSTYRVVSVLTVLHQDWLNGKEYKCKVSNKALPKPIEKTISKAKGQPREPQVYTLPPSREEMTKNQVSLTCLVKGFYPSDIAVEWESNGQPENNYKTTPPVLDSDGSFFLYSKLTVDKSRWQQGNVFSCSVMHEALHNHYTQKSLSLSP light: DIVMTQSPATLSLSPGERATLSCTSSQSVYHANWLSWFQQKPGQPPKLLIYWASTLAYGVPSRFSGSGSGTDFTLTISSLQPEDAATYYCAGGYGGGRYAFGQGTKVEIKRTVAAPSVFIFPPSDEQLKSGTASVVCLLNNFYPREAKVQWKVDNALQSGNSQESVTEQDSKDSTYSLSSTLTLSKADYEKHKVYACEVTHQGLSSPVTKSFNRGEC | 520 | 790 | 5 | 450 | 5.3 | 1000 | 1400 | 800 | 8.2
M103205H795-MY207/M103202L889-SK1 (antibody, human IgG1, kappa, Substitutions introduced into M103205H795-SG1; expressed with M103202L889-SK1 as light chain) heavy: not shown light: DIVMTQSPATLSLSPGERATLSCTSSQSVYHANWLSWFQQKPGQPPKLLIYWASTLAYGVPSRFSGSGSGTDFTLTISSLQPEDAATYYCAGGYGGGRYAFGQGTKVEIKRTVAAPSVFIFPPSDEQLKSGTASVVCLLNNFYPREAKVQWKVDNALQSGNSQESVTEQDSKDSTYSLSSTLTLSKADYEKHKVYACEVTHQGLSSPVTKSFNRGEC | 1500 | 1400 | 69 | 820 | 4.1 | 13000 | 2800 | 1600 | 8
